Test results reported in patent publication US20110195494A1 (Boehringer Ingelheim, published 2011).

Legend:
[1] = biological target: T1, full length mouse DLL4 on overexpressing CHO or HEK293 cells (mouse, UniProt Q9JI71 27-686); assay: FMAT, hNotch1/Fc on CHO-mDLL4, periplasmic extract
T1 construct: whole, on cells; also called CHO-mDLL4; mDLL4
Text: (§1) All calculations are based on the FL1 total signal which comprises the average of the fluorescence per well times the number of counts per well.

[2] = biological target: T2, full length human DLL4 on overexpressing CHO or HEK293 cells (human, UniProt Q9NR61 27-685); assay: FMAT, hNotch1/Fc on CHO-hDLL4, periplasmic extract
T2 construct: also called CHO-hDLL4; HEK293-hDII4
Text: as §1

[3] = biological target: T3, recombinant human DLL4, C-terminally His-tagged extracellular domain (R&D Systems) (human, UniProt Q9NR61 25-522, biotinylated where used in competition ELISA, AlphaScreen and on SA chips); assay: competition ELISA, periplasmic extract
T3 construct: also called rhDLL4; hDLL4; not shown: C-terminal His tag

[4] = biological target: T3, recombinant human DLL4, C-terminally …; assay: hDLL4/hNotch1-Fc AlphaScreen, periplasmic extract
Method: Periplasmic extracts are screened in a human DII4/human Notch1 AlphaScreen assay to assess the blocking capacity of the expressed VHHs. Human DII4 is biotinylated using biotin (Sigma, St Louis, Mo., USA) and biotinamidohexanoic acid 3-sulfo-N-hydroxysuccinimide ester sodium salt (Sigma, St Louis, Mo., USA). […] To evaluate the neutralizing capacity of the VHHs, dilution series of the periplasmic extracts are pre-incubated with biotinylated human DII4. To this mixture, the acceptor beads and the streptavidin donor beads are added and further incubated for 1 hour at room temperature. Fluorescence is measured by reading plates on the Envision Multilabel Plate reader (Perkin Elmer, Waltham, Mass., USA) using an excitation wavelength of 680 nm and an emission wavelength of 520 nm.

T2 sequence (Q9NR61 27-685 limits assumed): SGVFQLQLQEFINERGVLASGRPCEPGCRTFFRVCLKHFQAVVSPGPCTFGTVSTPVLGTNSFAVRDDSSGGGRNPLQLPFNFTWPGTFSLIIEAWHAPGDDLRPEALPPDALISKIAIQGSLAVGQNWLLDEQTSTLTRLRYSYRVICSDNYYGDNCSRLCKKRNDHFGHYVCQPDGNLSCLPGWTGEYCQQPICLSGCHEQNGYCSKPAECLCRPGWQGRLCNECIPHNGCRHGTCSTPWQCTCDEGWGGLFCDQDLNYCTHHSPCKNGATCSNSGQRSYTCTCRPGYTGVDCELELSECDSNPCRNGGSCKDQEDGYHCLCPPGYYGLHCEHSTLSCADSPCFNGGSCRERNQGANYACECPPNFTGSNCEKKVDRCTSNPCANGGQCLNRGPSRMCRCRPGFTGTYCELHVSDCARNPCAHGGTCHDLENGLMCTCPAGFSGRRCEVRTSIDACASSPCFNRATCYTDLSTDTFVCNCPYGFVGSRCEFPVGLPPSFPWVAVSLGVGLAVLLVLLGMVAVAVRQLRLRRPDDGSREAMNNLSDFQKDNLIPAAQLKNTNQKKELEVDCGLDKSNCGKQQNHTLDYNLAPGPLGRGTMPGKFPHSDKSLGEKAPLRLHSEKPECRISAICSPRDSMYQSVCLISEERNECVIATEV
T3 sequence (Q9NR61 25-522): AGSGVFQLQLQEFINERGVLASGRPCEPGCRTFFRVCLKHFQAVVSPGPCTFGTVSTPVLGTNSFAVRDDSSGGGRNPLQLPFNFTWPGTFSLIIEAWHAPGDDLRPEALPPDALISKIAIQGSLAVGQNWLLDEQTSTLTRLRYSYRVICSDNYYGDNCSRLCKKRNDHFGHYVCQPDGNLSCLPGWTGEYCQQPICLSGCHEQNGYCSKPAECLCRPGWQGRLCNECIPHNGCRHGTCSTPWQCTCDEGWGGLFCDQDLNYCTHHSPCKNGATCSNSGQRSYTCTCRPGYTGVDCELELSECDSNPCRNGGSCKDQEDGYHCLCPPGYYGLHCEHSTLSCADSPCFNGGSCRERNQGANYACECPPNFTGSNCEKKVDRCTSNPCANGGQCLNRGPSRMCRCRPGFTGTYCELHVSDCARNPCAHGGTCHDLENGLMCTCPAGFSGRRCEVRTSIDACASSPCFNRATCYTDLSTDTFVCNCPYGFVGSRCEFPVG
T1 sequence (Q9JI71 27-686): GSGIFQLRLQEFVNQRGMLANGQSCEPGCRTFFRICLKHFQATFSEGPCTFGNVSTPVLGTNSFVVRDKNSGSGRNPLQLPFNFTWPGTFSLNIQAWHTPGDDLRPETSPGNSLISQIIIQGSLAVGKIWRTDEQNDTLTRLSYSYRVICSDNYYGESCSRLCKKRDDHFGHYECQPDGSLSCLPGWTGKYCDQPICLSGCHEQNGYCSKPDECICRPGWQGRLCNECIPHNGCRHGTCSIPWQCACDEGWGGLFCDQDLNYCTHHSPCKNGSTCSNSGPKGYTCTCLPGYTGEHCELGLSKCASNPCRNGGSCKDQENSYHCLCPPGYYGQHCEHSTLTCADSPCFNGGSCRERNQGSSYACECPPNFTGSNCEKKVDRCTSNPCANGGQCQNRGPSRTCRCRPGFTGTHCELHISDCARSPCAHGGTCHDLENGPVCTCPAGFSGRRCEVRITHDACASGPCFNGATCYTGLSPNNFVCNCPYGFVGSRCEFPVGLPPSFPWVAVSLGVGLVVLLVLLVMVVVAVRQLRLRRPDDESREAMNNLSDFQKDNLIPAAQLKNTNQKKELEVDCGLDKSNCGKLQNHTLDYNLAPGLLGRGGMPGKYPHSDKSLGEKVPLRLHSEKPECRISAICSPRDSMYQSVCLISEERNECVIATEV

| FMAT mDLL4 % inhibition [1] | FMAT hDLL4 % inhibition [2] | ELISA hDLL4 % inhibition [3] | Alpha Screen hDLL4 % inhibition [4] | Binder |
| --- | --- | --- | --- | --- |
| 84% | 74% | – | – | DLLBII115A05 (VHH, also called DLLBII115A5; 115A5; not shown: C-terminal c-myc tag and His6 tag) VHH: EVQLVESGGGLVQPGGSLRLSCAASGFTFGSYDMSWVRRSPGKGPEWVSSINSGGGSTYYADFVKGRFTISRDNAKNTLYLQMNSLKPEDTAVYYCAADRYIRARQGDYWGAYEYDYWGQGTQVTVSS |
| 75% | 87% | – | – | DLLBII101H09 (VHH, tested as periplasmic extract; also called DLLBII101H9; not shown: C-terminal c-myc tag and His6 tag) VHH: EVQLVESGGGLVQPGGSLRLSCAASGFTLGYYTIVWFRQAPGKERKGVSCISSRDGSRYYADSVKGRFTISRDNAKNTVYLRMNSLKPEDTAVYYCAAGPDCSSYDYWGQGTQVTVSS |
| – | – | 98% | – | DLLBII5B11 (VHH, also called DLLBII05B11; not shown: C-terminal c-myc tag and His6 tag) VHH: EVQLVESGGGLVQPGGSLRLSCAISGFTLDLHVIGWLRQAPGKEREWVSCISSSDGSTYYADSVKGRFTISRDNAKNTVYLQMNSLKPEDTAVYYCAAPWDSWYCGIGNDYDYWGQGTQVTVSS |
| – | – | 57% | – | DLLBII8C11 (VHH, also called DLLBII08C11; not shown: C-terminal c-myc tag and His6 tag) VHH: EVQLVESGGGLVQAGGSLRLSCAASGFTFDDYAIGWFRQAPGKEREGVSCISSHDRTTYYADSVKGRFTISSDNAKNTVYLQMNSLKPEDTAVYYCAADPLVCGYNDPRLADYWGQGTQVTVSS |
| 82% | 71% | – | – | DLLBII80E08 (VHH, tested as periplasmic extract; also called DLLBII80E8; not shown: C-terminal c-myc tag and His6 tag) VHH: EVQLVESGGGLVQAGGSLTLSCAASGGTFTTYAMGWFRQAPGKEREFVAAVSRFGVSWDYADSVKGRFTISRDNTANTLKLRMNSLKADDTAVYYCAAGGRSFLPFVPAYWGQGTQVTVSS |
| 83% | 86% | – | – | DLLBII104A03 (VHH, tested as periplasmic extract; also called DLLBII104A3; not shown: C-terminal c-myc tag and His6 tag) VHH: EVQLVESGGGLVQAGGSLRLSCAASGDIPRIAAMGWYRQAPGKQRELVATVSNAATTRYADSAKGRFTISRDNAKTVSLQMDNLKPEDTGVYYCYSLATTVTPSWVNYWGQGTQVTVSS |
| 82% | 86% | – | – | DLLBII102G04 (VHH, tested as periplasmic extract; also called DLLBII102G4; not shown: C-terminal c-myc tag and His6 tag) VHH: EVQLMESGGGLVQPGGSLRLSCAASGFTFSSYAMSWVRQAPGKGLEWVSRITSGGRTTYRDSVKGRFTISRDNSKNTLYLQMNSLKPEDTALYYCAKARGDIDVYTLSDSRGQGTQVTVSS |
| 73% | 95% | – | – | DLLBII58A11 (VHH, tested as periplasmic extract; not shown: C-terminal c-myc tag and His6 tag) VHH: EVQLVESGGGLVQAGGSLRLSCTTSERTVSRYSMGWFRQAPGKEREAVATISWSGDSTYYADSVKGRFTISRDNTKNTLYLQIDSLKPEDTAVYYCVAKPNLKYGSYWPPRGYDYWGQGTQVTVSS |
| 80% | 75% | – | – | DLLBII107C03 (VHH, tested as periplasmic extract; also called DLLBII107C3; not shown: C-terminal c-myc tag and His6 tag) VHH: EVQLVESGGGLVQPGGSLRLSCEVSGSIGSVSDMRWYRQAPGLQYELVARITSGSITDYSDSVKGRFTISRDNAKNTVYLQMNSLKPEDTAVYYCNADVQHSAWLKPLTYWGQGTQVTVSS |
| 71% | 81% | – | – | DLLBII95F02 (VHH, tested as periplasmic extract; also called DLLBII95F2; not shown: C-terminal c-myc tag and His6 tag) VHH: EVQLVESGGGSVQAGGSLRLSCAASGRTFSSYAMGWFRQAPGKEREFVAAINWSGGYTYYADSVRGRFTISRDNAKNTVYLQMNSLKPEDTAVYYCAAPAPGSSGYEYDYWGQGTQVTVSS |
| – | – | 98% | 85% | DLLBII19D10 (VHH, tested as periplasmic extract; not shown: C-terminal c-myc tag and His6 tag) VHH: EVQLVESGGGLVQAGDSLRLSCAASGRTVGSYDMSWVRQGPGKEREWVSSINSGVGKTYYADSVKGRFTIFRDNAKNMVYLQMNNLKPEDTAVYYCATEMDGSRYVEGQGTQVTVSS |
| 71% | 74% | – | – | DLLBII62C11 (VHH, not shown: C-terminal c-myc tag and His6 tag) VHH: EVQLMESGGGLVQPGGSLRLSCVAAGFTFSNYYMSWVRQAPGKGLEWVSVISPDGSNTYYADTVKGRFTISRGNAKNTLFLQMTGLKSEDAAVYYCARGSGSWGVHGQGTQVTVSS |
| 77% | 79% | – | – | DLLBII61F07 (VHH, tested as periplasmic extract; also called DLLBII61F7; not shown: C-terminal c-myc tag and His6 tag) VHH: EVQLVESGGGLVQAGGSLRLSCAASGRTFSRYAMGWFRQAPGKEREFVAAINWSGGSTYYADSVKGRFTISRDNAKNTVYLQMNSLKPEDTAVYDCAASNYYSVYDDRPVMDYWGQGTQVTVSS |
| – | – | 96% | – | DLLBII8A09 (VHH, also called DLLBII08A09; not shown: C-terminal c-myc tag and His6 tag) VHH: EVQLVESGGGLVQPGGSLRLSCAASGFTLDYYNIGWFRQAPGKEREWVSCINSSDGSTYYADSVKGRFTISRDNAKNTVYLQMNSLKPEDTAVYYCAAPFAYYSNLCGVNGYDYWGQGTQVTVSS |
| – | 87% | – | – | DLLBII47D01 (VHH, tested as periplasmic extract; also called DLLBII47D1; not shown: C-terminal c-myc tag and His6 tag) VHH: EVQLVESGGGLVQPGGSLRLSCAASGFTFDDYAIGWFRQAPGKEREGVSCISSSGSTYYADSVKGRFTISRDNAKNTVYLQMNSLKPEDTAVYYCAIAGASSWCFPPGYWGQGTQVTVSS |
| – | – | 98% | – | DLLBII6B11 (VHH, also called DLLBII06B11; not shown: C-terminal c-myc tag and His6 tag) VHH: EVQLVESEGGLVQAGGSLRLSCAASGSTFSSYAMGWYRQAPGKQRELVAVISNGGITNYPNSVKGRFTISRDNAKNTVYLQMNSLKPEDTAVYYCFYSGSYYYPTDVHEYDYWGQGTQVTVSS |
| 75% | 85% | – | – | DLLBII102F08 (VHH, tested as periplasmic extract; also called DLLBII102F8; not shown: C-terminal c-myc tag and His6 tag) VHH: EVQLVESGGGLVQTGDSLRLSCAASGSTFSNYRMGWFRQGPGKEREFVAAIGRNGQNTYYTDSVKGRFTVTRDNAKNMVYLQMNSLKPEDSAVYTCAASLRGWDTTRIDYEYWGQGTQVTVSS |
| 78% | 85% | – | – | DLLBII101F01 (VHH, tested as periplasmic extract; also called DLLBII101F1; not shown: C-terminal c-myc tag and His6 tag) VHH: EVQLVESGGGLVQAGGSLRLSCAASGRTFSNYAMGWFRQAPGKEREFVAAISWSGGDTYYADSVKGRFTISRDNAKNTVCLQMNSLKPEDTAVYYCAASFQSGAAPGANFYDYWGQGTQVTVSS |
| – | – | 84% | – | DLLBII7B05 (VHH, also called DLLBII07B05; DLLBII7B5; not shown: C-terminal c-myc tag and His6 tag) VHH: EVQLVESGGGLVQAGGSLRLSCAASGFALDYYAVGWFRQAPGKEREGVSCISSRGGSTFYADSVKGRFTTSRNNAKNTVYLQMNSLKPEDTAVYYCAAHPLQNCCGGSAYASPEAVYEYWGQGTQVTVSS |
| 83% | 75% | – | – | DLLBII96C03 (VHH, also called DLLBII96C3; DLLBII96CO3; not shown: C-terminal c-myc tag and His6 tag) VHH: EVQLVESGGGLVQPGGSLRLSCAASGFTFGNYDMSWVRQAPGKGPEWVSAINSGGGDTYYADSVKGRFTISRDNAKNTLYLQMNSLKPEDTAVYYCATPRGWGPTGPHEYGYWGQGTQVTVSS |
| 83% | 87% | – | – | DLLBII104C04 (VHH, tested as periplasmic extract; also called DLLBII104C4; not shown: C-terminal c-myc tag and His6 tag) VHH: EVQLVESGGGLVQAGGSLRLSCAAAGSTFSSYVMGWYRQAPGKQRELVAHISTRGITYYADSVKGRFTISRDNAKNTMYLQMNSLKPEDTAVYYCNTRRNFLSNYWGQGTQVTVSS |
| 90% | 75% | – | – | DLLBII112A04 (VHH, tested as periplasmic extract; also called DLLBII112A4; not shown: C-terminal c-myc tag and His6 tag) VHH: EVQLVESGGGLVQAGGSLRLSCAAFGRTPYGMGWFRQAPGKEREFVAAITSDGSTNYADSVKGRFTISRDNAKNAVSLQMNSLKPEDTAVYYCTAPYYSDFEGTTTEYDYWGQGTQVTVSS |
| 85% | 80% | – | – | DLLBII112E07 (VHH, tested as periplasmic extract; also called DLLBII112E7; not shown: C-terminal c-myc tag and His6 tag) VHH: EVQLVESGGGLVQAGGSLRLSCAASGRTVRSYATGWFRQAPGKEREFVAALRWSIGSIASVYYDDSVKGRFTISGDNAENTVYLQMNALKPEDTAIYYCASTTRGRYSALSASAYDYWGQGTQVTVSS |
| 78% | 86% | – | – | DLLBII104B05 (VHH, tested as periplasmic extract; also called DLLBII104B5; not shown: C-terminal c-myc tag and His6 tag) VHH: EVQLVESGGGSVQAGGSLRLSCAASGSISRIDVMAWYRQAPGKERELVASISSGGSTNYADSVKGRFTISREYFKNMMYLQMNSLKFEDTAVYYCNADSRRGGVGNFFRSWGQGTQVTVSS |
| 76% | 74% | – | – | DLLBII61F05 (VHH, tested as periplasmic extract; also called DLLBII61F5; not shown: C-terminal c-myc tag and His6 tag) VHH: EVQLVESGGGLVQPGGSLRLSCTASGFTFSSYAMSWVRQAPGKGLEWVSFINKDGSDTGYADSVKGRFTISRDNAKNTMYLQMNSLKPEDTAVYFCETRTSRSPRPRGQGTQVTVSS |
| – | – | 86% | 75% | DLLBII33C05 (VHH, tested as periplasmic extract; also called DLLBII33C5; not shown: C-terminal c-myc tag and His6 tag) VHH: EVQLVESGGGLVQAGGSLRLSCAASGFTLDNYVIGWFRQAPGKEREEVSCISSSGGSTDYLDSVKGRFTISRDNAKNTVYLQMNSLKPEDTAVYYCAADSLPCYYDKMVYDYWGQGTQVTVSS |
| 97% | 72% | – | – | DLLBII112A03 (VHH, tested as periplasmic extract; also called DLLBII112A3; not shown: C-terminal c-myc tag and His6 tag) VHH: EVQLVESGGGLVQPGGSLRLSCAASGIRFSINGMGWYRQAPGKQREAVATITRGGIRDYTDSVKGRFTISRDIARNTVYLQMNNLKPEDSAVYYCNIDIYWGRGTQVTVSS |
